According to article PMC3499403 (PLoS Neglected Tropical Diseases, 2012):

What was measured:
[1] = target: T1, soluble form of the Variant-specific Surface Glycoprotein (sVSG) of T. b. brucei AnTat1.1 (Trypanosoma brucei brucei AnTat1.1, UniProt P06015); assay: SPR; BIAcore T100; 1000-1500 RU soluble AnTat1.1 VSG amine-coupled on a CM5 chip; Nanobody 500 to 7.8 nM at 30 µl/min in HBS (10 mM Hepes pH 7.5, 150 mM NaCl, 3.5 mM EDTA, 0.005% Tween-20); 1:1 binding model with local Rmax; conditions: both partners purified
T1 construct: Variant-specific Surface Glycoprotein (VSG) of Trypanosoma brucei brucei AnTat1.1, soluble form (sVSG); Glycoprotein; amine-coupled to a CM5 chip for SPR; also called AnTat1.1 sVSG; soluble AnTat1.1 VSG

[2] = target: T2, Variant-specific Surface Glycoprotein (VSG) on live bloodstream form T. b. brucei AnTat1.1 (Trypanosoma brucei brucei AnTat1.1, UniProt P06015); assay: cell-based or functional assay
[3] = target: T2, Variant-specific Surface Glycoprotein …; assay: cell-based or functional assay; remark: listed apart in the source
[4] = target: T1, soluble form of the Variant-specific …; assay: SPR; BIAcore T100; 1000-1500 RU soluble AnTat1.1 VSG amine-coupled on a CM5 chip; Nanobody 500 to 7.8 nM at 30 µl/min in HBS (10 mM Hepes pH 7.5, 150 mM NaCl, 3.5 mM EDTA, 0.005% Tween-20); 1:1 binding model with local Rmax; conditions: both partners purified; remark: listed apart in the source
[5] = target: T3, Variant-specific Surface Glycoprotein (VSG) on live bloodstream form T. b. brucei AnTat1.1 (Trypanosoma brucei brucei AnTat1.1 (endogenous in the parasites)) (UniProt P06015)
T3 sequence: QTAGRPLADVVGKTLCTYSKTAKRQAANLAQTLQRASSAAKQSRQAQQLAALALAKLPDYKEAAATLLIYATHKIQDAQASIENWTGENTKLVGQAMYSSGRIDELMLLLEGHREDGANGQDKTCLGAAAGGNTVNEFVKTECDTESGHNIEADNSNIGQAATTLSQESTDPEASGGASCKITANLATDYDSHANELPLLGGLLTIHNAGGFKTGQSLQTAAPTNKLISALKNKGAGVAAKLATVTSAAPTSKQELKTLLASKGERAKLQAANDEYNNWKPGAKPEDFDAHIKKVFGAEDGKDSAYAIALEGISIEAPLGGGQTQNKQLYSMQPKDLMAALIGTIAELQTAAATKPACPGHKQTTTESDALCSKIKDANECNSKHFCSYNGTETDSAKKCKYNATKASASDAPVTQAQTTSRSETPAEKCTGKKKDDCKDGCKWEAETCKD

[6] = target: T1, soluble form of the Variant-specific …; assay: SPR; BIAcore T100; 1000-1500 RU soluble AnTat1.1 VSG amine-coupled on a CM5 chip; Nanobody 500 to 7.8 nM at 30 µl/min in HBS (10 mM Hepes pH 7.5, 150 mM NaCl, 3.5 mM EDTA, 0.005% Tween-20); 1:1 binding model with local Rmax; conditions: both partners purified; remark: listed apart in the source
[7] = target: T2, Variant-specific Surface Glycoprotein …; assay: cell-based or functional assay; remark: listed apart in the source

B1: Nb_An-R4.71 (VHH)
VHH: QVQLQESGGGLVQPGGSLRLSCAASGFILNYATIAWFRQAPGKEREGVSCISSAFNTNYADSVKGRFAISRDNAKNTVYLQMNSLKPEDTAVYYCAATFGGTSYCSLRPDSSVPYDTWGQGTQVTVSS
notes: From the alpaca sVSG-immune library, cloned in pMES; source: E. coli WK6, purified (Ni-NTA, Superdex 75 gel filtration)
Which Kd [1] does the source give for B1 here?
Its Kd is 7 nM.

What about the “trypanotoxic activity (% relative to a non-trypanosome specific Nb), 10 µg/ml Nb, 18 h, 37°C, HMI-9/10% FBS” value [2] of the same binder?
Its value is > 80%.

B2: Nb_An-R3.7 (VHH)
VHH: QVQLQESGGGLVQPGGSLRLSCEASGFILGYYTIGWIRQAPGKEREGVICITSAGGRTNYADSVKGRFTISRDNAKNTVYLQMNSLKPEDTAVYYCAADLINLCDSSWLRDGMNYWGKGTQVTVSS
notes: as for B1
Which Kd [1] does the source give for B2 here?
The Kd was 5 nM.

And the “trypanotoxic activity (% relative to a non-trypanosome specific Nb), 10 µg/ml Nb, 18 h, 37°C, HMI-9/10% FBS” value [2]?
The value was > 80%.

B3: Nb_An-R4.29 (VHH)
VHH: QVQLQESGGGLVQPGGSLRLSCEASGFILGYYTIGWFRQAPGKEREGVSCINSSPGTTNYADSVKGRFTISRDNAKNTVYLQMNSLKPEDTAVYYCAADLINLCDSTWVRDGMNFWGKGTQVTVSS
notes: as for B1
How did the Kd [1] turn out when B3 was run?
The Kd was 5 nM.

What about the “trypanotoxic activity (% relative to a non-trypanosome specific Nb), 10 µg/ml Nb, 18 h, 37°C, HMI-9/10% FBS” value [2] of the same binder?
Its value is > 80%.

B4: Nb_An-R3.92 (VHH)
VHH: QVQLQESGGGLVQAGGSLRLSCEASGFILGYYTIGWFRQAPGKEREGVLCISSAGGRTNYADSVKGRFTISRDNAKNTVYLQMNSLKPEDTAVYYCAADLINLCDSSWWRDGMNYWGKGTQVTVSS
notes: as for B1
What does the source list for B4?
Kd [1]: 11 nM; trypanotoxic activity (% relative to a non-trypanosome specific Nb), 10 µg/ml Nb, 18 h, 37°C, HMI-9/10% FBS [2]: > 80%

B5: Nb_An-R4.80 (VHH)
VHH: QVQLQESGGGLVQPGGSLRLSCEASGFILGYYTIGWIRQAPGKEREGVICITSAGGRTNYADSVKGRFTISRDNAKNTVYLQMNSLKPEDTAVYYCAADLTNLCDSSWLRDGMNYWGKGTQVTVSS
notes: as for B1
B5 was tested. Which Kd [1] did it give?
Its Kd is 6 nM.

And the “trypanotoxic activity (% relative to a non-trypanosome specific Nb), 10 µg/ml Nb, 18 h, 37°C, HMI-9/10% FBS” value [2]?
Its value is > 80%.

B6: Nb_An-R4.55 (VHH)
VHH: QVQLQESGGGLVQPGGSLRLSCEASGFILGYYTIGWIRQAPGKEREGVICITSAGGRTNYADSVKGRFTISRDNAKNTVYLQMNSLKPEDTAVYYCAADLINLCDSSWLQDGMNYWGKGTQVTVSS
notes: as for B1
What does the source list for B6?
Kd [1]: 5 nM; trypanotoxic activity (% relative to a non-trypanosome specific Nb), 10 µg/ml Nb, 18 h, 37°C, HMI-9/10% FBS [2]: > 80%

B7: Nb_An-R4.11 (VHH)
VHH: QVQLQESGGGLVQPGGSLRLSCEGSGFILGYYTIGWFRQAPGKEREGVSCMNSSGRTKYADSVKGRFTISRDNAKNTVYLQMNSLKPEDRAVYFCAADLINLCDSSWLRDGMNYWGKGTQVTVSS
notes: as for B1
B7 was tested. Which Kd [1] did it give?
The Kd was 35 nM.

What about the “trypanotoxic activity (% relative to a non-trypanosome specific Nb), 10 µg/ml Nb, 18 h, 37°C, HMI-9/10% FBS” value [2] of the same binder?
The value was > 80%.

B8: Nb_An-R3.68 (VHH)
VHH: QVQLQESGGGLVQPGGSLRLSCAASGGTLSYYAVGWFRQAPGKEREAVSSIRSGGGITVYADSVKGRFTISRDNKKNTVYLQMNGLKPEDTAVYYCAAGLWRWPDHNMLVSGNYDYWGQGTQVTVSS
notes: as for B1
What does the source list for B8?
trypanotoxic activity (% relative to a non-trypanosome specific Nb), 10 and 20 µg/ml Nb, 18 h, 37°C; value at 20 µg/ml [3]: > 95%; Kd [1]: 12 nM; Kd [4]: 9 nM

B9: Nb_An33hum1 (VHH)
VHH: DVQLVESGGGSVQAGGSLRLSCAVSGSTYSPCTTGWVRQAPGKEREWVSSISSPGTIYYQDSVKGRFTISRDNAKNTVYLQMNSLQREDTGMYYCQIQCGVRSIREYWGQGTQVTVSS
What does the source list for B9?
Trypanotoxic activity (%), 18 h incubation at 37°C with 20 µg/ml Nb [5]: 0%; Kd [6]: 1100 nM; koff [6]: 0.264 s⁻¹; kon [6]: 243000 M⁻¹ s⁻¹

B10: Nanobody 33 (Nb_An33), wildtype (VHH)
VHH: DVQLVESGGGSVQAGGSLRLSCAVSGSTYSPCTTGWYRQAPGKEREWVSSISSPGTIYYQDSVKGRFTISRDNAKNTVYLQMNSLQREDTGMYYCQIQCGVRSIREYWGQGTQVTVSS
B10 was tested. Which Trypanotoxic activity (%), 18 h incubation at 37°C with 20 µg/ml Nb [5] did it give?
Its Trypanotoxic activity (%), 18 h incubation at 37°C with 20 µg/ml Nb is 73%.

What about the Kd [6] of the same binder?
The Kd was 28 nM.

What about the koff [6] of the same binder?
Its koff is 0.021 s⁻¹.

And the kon [6]?
Its kon is 741000 M⁻¹ s⁻¹.

B11: Nb_An33mut2 (VHH)
VHH: DVQLVESGGGSVQAGGSLRLSCAVSGSTYSPCTTGWYRQAPGKEREWVSSISSPGTIYYQDSVKGRFTISRDNAKNTVYLQMNSLQREDTGMYYCQIQCGFVNINEYWGQGTQVTVSS
notes: Conjugated with Alexa Fluor 488 for flow cytometry; source: E. coli WK6, purified (Ni-NTA, Superdex 75 gel filtration)
Which Kd [6] does the source give for B11 here?
The Kd was 723 nM.

What about the koff [6] of the same binder?
The koff was 0.227 s⁻¹.

What about the kon [6] of the same binder?
The kon was 314000 M⁻¹ s⁻¹.

And the “Trypanotoxic activity (%), 18 h incubation at 37°C with 20 µg/ml Nb” value [7]?
The value was 4%.

B12: Nb_An33mut1 (VHH)
VHH: DVQLVESGGGSVQAGGSLRLSCAVSGRALSPCTTGWYRQAPGKEREWVSSISSPGTIYYQDSVKGRFTISRDNAKNTVYLQMNSLQREDTGMYYCQIQCGVRSIREYWGQGTQVTVSS
notes: as for B11
Which results are given for B12?
Kd [6]: 89 nM; koff [6]: 0.042 s⁻¹; kon [6]: 467000 M⁻¹ s⁻¹; Trypanotoxic activity (%), 18 h incubation at 37°C with 20 µg/ml Nb [7]: 33%

B13: Nb_An33mut3 (VHH)
VHH: DVQLVESGGGSVQAGGSLRLSCAVSGSTYSPCTTGWYRQAPGKEREWVSSISSPGTIYYQDSVKGRFTISRDNAKNTVYLQMNSLQREDTGMYYCQIQCGNDCILEYWGQGTQVTVSS
notes: as for B11
B13 was tested. Which Kd [6] did it give?
The Kd was 197 nM.

And the koff [6]?
Its koff is 0.066 s⁻¹.

What about the kon [6] of the same binder?
The kon was 336000 M⁻¹ s⁻¹.

What about the “Trypanotoxic activity (%), 18 h incubation at 37°C with 20 µg/ml Nb” value [7] of the same binder?
Its value is 24%.

B14: Nb_An33hum2 (VHH)
VHH: DVQLVESGGGSVQAGGSLRLSCAVSGSTYSPCTTGWVRQAPGKGLEWVSSISSPGTIYYQDSVKGRFTISRDNAKNTVYLQMNSLQREDTGMYYCQIQCGVRSIREYWGQGTQVTVSS
With B14 as the binder, how does the Trypanotoxic activity (%), 18 h incubation at 37°C with 20 µg/ml Nb [5] read?
Its Trypanotoxic activity (%), 18 h incubation at 37°C with 20 µg/ml Nb is 0%.

And the Kd [6]?
Its Kd is 540 nM.

And the koff [6]?
The koff was 0.15 s⁻¹.

What about the kon [6] of the same binder?
Its kon is 291000 M⁻¹ s⁻¹.

B15: Nb_An33hum3 (VHH)
VHH: DVQLVESGGGSVQAGGSLRLSCAVSGSTYSPCTTGWYRQAPGKGLEWVSSISSPGTIYYQDSVKGRFTISRDNAKNTVYLQMNSLQREDTGMYYCQIQCGVRSIREYWGQGTQVTVSS
B15 was tested. Which Trypanotoxic activity (%), 18 h incubation at 37°C with 20 µg/ml Nb [5] did it give?
The Trypanotoxic activity (%), 18 h incubation at 37°C with 20 µg/ml Nb was 57%.

What about the Kd [6] of the same binder?
Its Kd is 23.5 nM.

And the koff [6]?
Its koff is 0.016 s⁻¹.

What about the kon [6] of the same binder?
Its kon is 702000 M⁻¹ s⁻¹.
